# Test results taken from PMC11293393, “ChAHP2 and ChAHP control diverse retrotransposons by complementary activities” (Genes & Development, 2024).
# B1: Strep-HP1β (natural protein)
# chain: not shown
# notes: HP1β (CBX1), human, full length, amino acid residues 1-185; pFast-Bac-derived vector; also called full-length human HP1β; source: Trichoplusia ni High5 cells (baculovirus), coexpressed with His-ADNP2; in lysate for the pull-down, Strep-Tactin eluate for SEC-MALS; not shown: Strep tag II, N-terminal, kept
# B2: His-ADNP2 (natural protein, human, UniProt Q6IQ32 1-1131, looked up)
# chain: MFQIPVENLDNIRKVRKKVKGILVDIGLDSCKELLKDLKGFDPGEKYFHNTSWGDVSLWEPSGKKVRYRTKPYCCGLCKYSTKVLTSFKNHLHRYHEDEIDQELVIPCPNCVFASQPKVVGRHFRMFHAPVRKVQNYTVNILGETKSSRSDVISFTCLKCNFSNTLYYSMKKHVLVAHFHYLINSYFGLRTEEMGEQPKTNDTVSIEKIPPPDKYYCKKCNANASSQDALMYHILTSDIHRDLENKLRSVISEHIKRTGLLKQTHIAPKPAAHLAAPANGSAPSAPAQPPCFHLALPQNSPSPAAGQPVTVAQGAPGSLTHSPPAAGQSHMTLVSSPLPVGQNSLTLQPPAPQPVFLSHGVPLHQSVNPPVLPLSQPVGPVNKSVGTSVLPINQTVRPGVLPLTQPVGPINRPVGPGVLPVSPSVTPGVLQAVSPGVLSVSRAVPSGVLPAGQMTPAGQMTPAGVIPGQTATSGVLPTGQMVQSGVLPVGQTAPSRVLPPGQTAPLRVISAGQVVPSGLLSPNQTVSSSAVVPVNQGVNSGVLQLSQPVVSGVLPVGQPVRPGVLQLNQTVGTNILPVNQPVRPGASQNTTFLTSGSILRQLIPTGKQVNGIPTYTLAPVSVTLPVPPGGLATVAPPQMPIQLLPSGAAAPMAGSMPGMPSPPVLVNAAQSVFVQASSSAADTNQVLKQAKQWKTCPVCNELFPSNVYQVHMEVAHKHSESKSGEKLEPEKLAACAPFLKWMREKTVRCLSCKCLVSEEELIHHLLMHGLGCLFCPCTFHDIKGLSEHSRNRHLGKKKLPMDYSNRGFQLDVDANGNLLFPHLDFITILPKEKLGEREVYLAILAGIHSKSLVPVYVKVRPQAEGTPGSTGKRVSTCPFCFGPFVTTEAYELHLKERHHIMPTVHTVLKSPAFKCIHCCGVYTGNMTLAAIAVHLVRCRSAPKDSSSDLQAQPGFIHNSELLLVSGEVMHDSSFSVKRKLPDGHLGAEDQRHGEEQPPILNADAAPGPEKVTSVVPFKRQRNESRTEGPIVKDEALQILALDPKKYEGRSYEEKKQFLKDYFHKKPYPSKKEIELLSSLFWVWKIDVASFFGKRRYICMKAIKNHKPSVLLGFDMSELKNVKHRLNFEYEP
# notes: ADNP2, human, full length, amino acid residues 1-1131; pFast-Bac-derived vector; also called full-length human ADNP2; source: Trichoplusia ni High5 cells (baculovirus), coexpressed with Strep-HP1β; in lysate for the pull-down, Strep-Tactin eluate for SEC-MALS; not shown: His6, N-terminal, kept
# Key:
# [1] = molecular target: B2; experiment: pull-down; High5 cell pools (His-ADNP2 + Strep-HP1β coexpressed; His-CHD4 separately) mixed and lysed; cleared lysate over Strep-Tactin sepharose, 50 mM Tris pH 7.5, 300 mM NaCl, 0.1% Triton X-100; eluted with 2.5 mM desthiobiotin; SDS-PAGE and Coomassie staining; settings: partners not purified
# [2] = molecular target: T1, His-CHD4 (human, UniProt Q14839 1-1912); experiment: SEC-MALS; Strep-Tactin eluate, ~4-5 mg/mL, Superose 6 Increase 10/300 GL, 50 mM HEPES-OH pH 7.4, 150 mM NaCl, 0.5 mM TCEP; settings: both partners purified
# T1 construct: CHD4, human, full length, amino acid residues 1-1912; pAC8-derived vector; also called full-length human CHD4; source: Trichoplusia ni High5 cells (baculovirus), expressed separately; in lysate for the pull-down, Strep-Tactin eluate for SEC-MALS; not shown: His6, N-terminal, kept
# T1 sequence (Q14839 whole entry, the tested form may be a part): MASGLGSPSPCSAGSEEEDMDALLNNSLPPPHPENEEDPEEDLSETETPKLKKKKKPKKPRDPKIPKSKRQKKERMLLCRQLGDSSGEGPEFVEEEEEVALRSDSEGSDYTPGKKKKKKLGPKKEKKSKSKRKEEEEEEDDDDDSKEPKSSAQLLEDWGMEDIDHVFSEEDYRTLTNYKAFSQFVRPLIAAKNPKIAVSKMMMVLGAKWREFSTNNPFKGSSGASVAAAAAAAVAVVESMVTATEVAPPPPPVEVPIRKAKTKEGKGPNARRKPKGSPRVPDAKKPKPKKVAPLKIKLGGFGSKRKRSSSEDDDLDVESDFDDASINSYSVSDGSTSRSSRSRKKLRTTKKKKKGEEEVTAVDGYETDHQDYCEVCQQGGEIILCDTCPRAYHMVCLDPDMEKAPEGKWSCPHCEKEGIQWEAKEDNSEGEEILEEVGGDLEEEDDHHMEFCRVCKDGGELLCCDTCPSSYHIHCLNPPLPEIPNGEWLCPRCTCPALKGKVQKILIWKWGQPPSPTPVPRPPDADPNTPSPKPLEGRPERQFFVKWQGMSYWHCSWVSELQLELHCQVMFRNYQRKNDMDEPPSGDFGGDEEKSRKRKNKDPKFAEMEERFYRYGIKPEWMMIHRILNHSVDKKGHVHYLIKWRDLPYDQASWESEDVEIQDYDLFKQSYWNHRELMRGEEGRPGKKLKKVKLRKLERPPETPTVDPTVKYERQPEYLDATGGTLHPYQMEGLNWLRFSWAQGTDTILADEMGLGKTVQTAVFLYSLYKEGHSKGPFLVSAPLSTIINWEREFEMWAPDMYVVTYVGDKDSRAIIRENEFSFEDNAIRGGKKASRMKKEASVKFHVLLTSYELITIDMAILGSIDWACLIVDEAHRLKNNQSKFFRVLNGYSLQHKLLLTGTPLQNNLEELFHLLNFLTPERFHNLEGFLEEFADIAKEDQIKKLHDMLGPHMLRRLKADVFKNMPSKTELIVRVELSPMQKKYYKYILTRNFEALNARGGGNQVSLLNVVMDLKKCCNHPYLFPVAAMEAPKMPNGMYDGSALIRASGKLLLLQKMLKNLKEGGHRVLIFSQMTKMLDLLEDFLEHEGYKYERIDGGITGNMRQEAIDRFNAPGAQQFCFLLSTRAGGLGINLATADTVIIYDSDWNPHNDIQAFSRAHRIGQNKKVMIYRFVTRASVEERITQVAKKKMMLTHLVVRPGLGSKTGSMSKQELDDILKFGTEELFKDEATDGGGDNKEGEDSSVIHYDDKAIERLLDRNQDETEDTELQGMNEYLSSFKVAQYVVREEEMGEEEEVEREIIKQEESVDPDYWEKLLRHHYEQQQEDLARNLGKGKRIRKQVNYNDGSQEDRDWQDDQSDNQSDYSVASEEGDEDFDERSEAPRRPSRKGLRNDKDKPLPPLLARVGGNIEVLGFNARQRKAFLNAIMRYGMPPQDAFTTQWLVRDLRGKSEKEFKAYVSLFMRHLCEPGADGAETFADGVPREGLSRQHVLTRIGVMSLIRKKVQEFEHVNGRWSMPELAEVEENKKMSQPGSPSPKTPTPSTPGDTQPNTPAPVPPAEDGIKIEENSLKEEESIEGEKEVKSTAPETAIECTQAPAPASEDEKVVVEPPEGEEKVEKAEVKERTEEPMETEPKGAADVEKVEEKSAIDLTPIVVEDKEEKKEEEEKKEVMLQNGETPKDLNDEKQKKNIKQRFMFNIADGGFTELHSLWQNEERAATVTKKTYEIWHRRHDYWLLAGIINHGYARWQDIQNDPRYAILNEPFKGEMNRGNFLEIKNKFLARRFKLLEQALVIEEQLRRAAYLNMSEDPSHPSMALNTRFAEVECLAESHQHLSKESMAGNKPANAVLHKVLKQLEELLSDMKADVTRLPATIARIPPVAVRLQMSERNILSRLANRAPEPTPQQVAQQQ
Binder,binding result [1],binding result [2]
B1,binds,binds
B2,,binds
